Test results from US20240261333A1 (published 2024).

What was measured:
Assay in all cases: co-IP with anti-FLAG, mass spectrometry; lysate of cells with N-FLAG B3GNT2
[1] = molecular target: RPS4X (human, UniProt P62701 2-263)
Description: (§1) Cells were plated in 10-cm cell culture dishes and grown to 60-80% confluency. For each condition, two biological replicates were harvested for co-IP. Cells were washed with PBS and 4 mL of lysis buffer (20 mM HEPES, 1% Triton X-100, 150 mM NaCl, 1 mM EDTA, and 10% glycerol) containing protease inhibitor cocktail was added. Cells were scraped and lysate was incubated at 4° C. under rotary agitation for 1 h. Lysate was centrifuged at 14,000×g for 10 min at 4° C. Supernatant was transferred to a new tube and an aliquot was taken as the input. […] For Western blots, 10 μg/mL Chicken Anti-FLAG (Aves labs ET-DY100) and IgY control (R&D Systems AB-101-C) antibodies were biotinylated (Thermo Fisher Scientific 90407) and added to the respective conditions. Lysates with antibodies were incubated at 4° C. under rotary agitation overnight. For each mL of lysate, 50 μL of Pierce Protein A/G Magnetic Beads (Mass spectrometry; Thermo Fisher Scientific 88803) or Pierce Streptavidin Magnetic Beads (Western blot; Thermo Fisher Scientific 88817) was washed twice with lysis buffer. Lysates with antibodies were added to the beads and incubated at 4° C. under rotary agitation for 4 h. Beads were washed with lysis buffer 3 times and resuspended in lysis buffer for storage.
(§2) Magnetic beads were resuspended in 100 mM Tris pH 7.8, reduced, alkylated and digested with trypsin at 37° ° C. overnight. This solution was subjected to solid phase extraction to concentrate the peptides and remove unwanted reagents followed by injection onto a Shimadzu HPLC with fraction collector. Eight fractions were collected and after concentration were injected on a Waters NanoAcquity HPLC equipped with a self-packed Aeris 3 μm C18 analytical column 0.075 mm by 20 cm, (Phenomenex). Peptides were eluted using standard reverse-phase gradients. The effluent from the column was analyzed using a Thermo Orbitrap Elite mass spectrometer (nanospray configuration) operated in a data dependent manner for 54 minutes. The resulting fragmentation spectra were correlated against the known database using Proteome Discover 1.4 (Thermo Fisher Scientific).

[2] = molecular target: T1, HADHA (human, UniProt P40939 37-763)
T1 construct: also called NP_000173.2
T1 sequence (P40939 37-763 limits assumed): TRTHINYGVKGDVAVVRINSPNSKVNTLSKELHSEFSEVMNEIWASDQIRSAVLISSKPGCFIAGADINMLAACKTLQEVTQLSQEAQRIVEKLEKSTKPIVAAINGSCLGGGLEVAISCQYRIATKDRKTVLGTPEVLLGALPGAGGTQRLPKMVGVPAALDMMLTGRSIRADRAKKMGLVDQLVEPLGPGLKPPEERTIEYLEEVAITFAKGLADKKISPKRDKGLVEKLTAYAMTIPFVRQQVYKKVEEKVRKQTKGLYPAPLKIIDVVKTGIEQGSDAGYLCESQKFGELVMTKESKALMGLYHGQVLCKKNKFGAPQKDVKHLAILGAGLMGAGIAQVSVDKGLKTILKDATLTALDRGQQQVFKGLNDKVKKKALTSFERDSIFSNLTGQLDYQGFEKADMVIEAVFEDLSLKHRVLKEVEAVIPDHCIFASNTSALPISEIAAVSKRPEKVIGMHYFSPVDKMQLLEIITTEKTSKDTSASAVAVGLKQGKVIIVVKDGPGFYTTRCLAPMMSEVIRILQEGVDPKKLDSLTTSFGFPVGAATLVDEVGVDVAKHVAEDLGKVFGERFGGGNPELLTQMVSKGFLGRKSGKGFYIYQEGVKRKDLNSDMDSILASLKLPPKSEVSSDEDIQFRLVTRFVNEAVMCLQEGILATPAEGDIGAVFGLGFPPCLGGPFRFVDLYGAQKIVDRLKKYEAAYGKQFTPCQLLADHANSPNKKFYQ
Description: as §1, §2

[3] = molecular target: T2, GANAB (human, UniProt Q14697 29-944)
T2 construct: also called NP_938148.1 (+1)
T2 sequence (looked up): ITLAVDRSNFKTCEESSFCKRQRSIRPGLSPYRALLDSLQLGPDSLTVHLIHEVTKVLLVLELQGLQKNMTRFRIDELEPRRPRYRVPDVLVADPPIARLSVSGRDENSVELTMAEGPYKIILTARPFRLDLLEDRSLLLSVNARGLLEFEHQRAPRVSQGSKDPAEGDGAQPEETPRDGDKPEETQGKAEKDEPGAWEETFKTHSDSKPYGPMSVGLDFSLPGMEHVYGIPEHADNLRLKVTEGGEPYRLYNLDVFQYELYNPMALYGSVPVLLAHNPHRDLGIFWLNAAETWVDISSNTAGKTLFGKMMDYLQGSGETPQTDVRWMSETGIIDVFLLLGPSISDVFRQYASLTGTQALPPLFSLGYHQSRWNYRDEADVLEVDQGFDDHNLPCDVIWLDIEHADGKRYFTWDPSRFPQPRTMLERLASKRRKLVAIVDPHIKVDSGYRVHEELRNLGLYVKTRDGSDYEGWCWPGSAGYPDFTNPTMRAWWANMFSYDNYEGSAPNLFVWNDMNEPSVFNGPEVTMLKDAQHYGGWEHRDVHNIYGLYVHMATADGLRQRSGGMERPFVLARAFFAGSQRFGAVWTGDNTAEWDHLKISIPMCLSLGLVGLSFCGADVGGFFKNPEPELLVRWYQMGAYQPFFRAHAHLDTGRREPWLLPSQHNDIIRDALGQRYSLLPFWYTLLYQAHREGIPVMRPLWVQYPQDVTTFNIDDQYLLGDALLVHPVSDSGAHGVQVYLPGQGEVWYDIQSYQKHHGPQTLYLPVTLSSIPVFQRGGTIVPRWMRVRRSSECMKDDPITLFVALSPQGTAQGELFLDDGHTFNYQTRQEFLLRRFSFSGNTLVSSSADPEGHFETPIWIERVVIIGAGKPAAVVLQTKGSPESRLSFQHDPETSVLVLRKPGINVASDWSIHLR
Description: as §1, §2

[4] = molecular target: T3, SDF4 (human, UniProt Q9BRK5 37-362)
T3 construct: also called NP_057260.2 (+2)
T3 sequence (looked up): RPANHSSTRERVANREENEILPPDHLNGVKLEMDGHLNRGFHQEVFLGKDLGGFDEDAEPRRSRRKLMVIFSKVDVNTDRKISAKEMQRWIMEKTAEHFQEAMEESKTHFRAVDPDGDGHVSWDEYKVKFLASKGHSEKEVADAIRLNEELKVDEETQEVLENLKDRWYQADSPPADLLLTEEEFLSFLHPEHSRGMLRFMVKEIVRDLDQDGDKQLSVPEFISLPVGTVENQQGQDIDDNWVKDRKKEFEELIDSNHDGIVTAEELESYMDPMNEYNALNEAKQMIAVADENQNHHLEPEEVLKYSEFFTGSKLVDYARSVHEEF
Description: as §1, §2

B1: N-terminal FLAG tagged B3GNT2 (enzyme, human, UniProt Q9NY97 1-397, looked up)
chain: MSVGRRRIKLLGILMMANVFIYFIMEVSKSSSQEKNGKGEVIIPKEKFWKISTPPEAYWNREQEKLNRQYNPILSMLTNQTGEAGRLSNISHLNYCEPDLRVTSVVTGFNNLPDRFKDFLLYLRCRNYSLLIDQPDKCAKKPFLLLAIKSLTPHFARRQAIRESWGQESNAGNQTVVRVFLLGQTPPEDNHPDLSDMLKFESEKHQDILMWNYRDTFFNLSLKEVLFLRWVSTSCPDTEFVFKGDDDVFVNTHHILNYLNSLSKTKAKDLFIGDVIHNAGPHRDKKLKYYIPEVVYSGLYPPYAGGGGFLYSGHLALRLYHITDQVHLYPIDDVYTGMCLQKLGLVPEKHKGFRTFDIEEKNKNNICSYVDLMLVHSRKPQEMIDIWSQLQSAHLKC
notes: Bait of the co-IP; pulled down with mouse anti-FLAG (Millipore Sigma F3165) from cell lysate; also called N-FLAG B3GNT2; N-term FLAG; not shown: N-terminal FLAG tag
[1]
  co-IP mass spectrometry count: 14
[2]
  co-IP mass spectrometry count: 0
[3]
  co-IP mass spectrometry count: 0
[4]
  co-IP mass spectrometry count: 0
